These results are taken from patent US20040018561A1, “Peptide compounds and their use as protease substrates” (priority 2002, published 2004).

For data set [1], the system named is COc1ccc2c(CC(=O)N[C@@H](CCCNC(=N)N)C(=O)N3CCC[C@@H]3C(=O)N[C@@H](CC(C)C)C(=O)NCC(=O)N[C@@H](CC(C)C)C(=O)N[C@H](CNc3ccc([N+](=O)[O-])cc3[N+](=O)[O-])C(=O)N[C@@H](C)C(=O)N[C@H](CCCNC(=N)N)C(=O)N[C@@H](CCC(=O)O)C(=O)N[C@H](CCCNC(=N)N)C(N)=O)cc(=O)oc2c1. The data set can be described thus: Km and kcat/Km of substrates with MMP-3. It counts as biochemical. The note with it: other: substrate cleavage by MMP-3.

The subject of data set [2] is COc1ccc2c(CC(=O)N[C@@H](CCCNC(=N)N)C(=O)N3CCC[C@H]3C(=O)N[C@@H](CC(C)C)C(=O)NCC(=O)N[C@@H](CCCCOCc3ccccc3)C(=O)N[C@@H](CNc3ccc([N+](=O)[O-])cc3[N+](=O)[O-])C(=O)N[C@@H](C)C(=O)N[C@@H](CCCNC(=N)N)C(=O)N[C@@H](CCC(=O)O)C(=O)N[C@@H](CCCNC(=N)N)C(N)=O)cc(=O)oc2c1. The data set can be described thus: Km and kcat/Km of substrates with MMP-3. It counts as biochemical. The note with it: other: substrate cleavage by MMP-3.

Data set [3] deals with COc1ccc2c(CC(=O)N[C@H](CCCNC(=N)N)C(=O)N3CCC[C@H]3C(=O)N[C@@H](CC(C)C)C(=O)NCC(=O)N[C@@H](CCCCOCc3ccccc3)C(=O)N[C@@H](CNc3ccc([N+](=O)[O-])cc3[N+](=O)[O-])C(=O)N[C@@H](C)C(=O)N[C@H](CCCNC(=N)N)C(=O)N[C@H](CCC(=O)O)C(=O)N[C@H](CCCNC(=N)N)C(N)=O)cc(=O)oc2c1. Briefly: Km and kcat/Km of substrates with MMP-3. In kind it is biochemical. Particulars: other: substrate cleavage by MMP-3.

For data set [4], the system named is COc1ccc2c(CC(=O)N[C@@H](CCCNC(=N)N)C(=O)N3CCC[C@@H]3C(=O)N[C@@H](CC(C)C)C(=O)NCC(=O)N[C@@H](CC(C)C)C(=O)N[C@H](CNc3ccc([N+](=O)[O-])cc3[N+](=O)[O-])C(=O)N[C@@H](C)C(=O)N[C@H](CCCNC(=N)N)C(=O)N[C@@H](CCC(=O)O)C(=O)N[C@H](CCCNC(=N)N)C(N)=O)cc(=O)oc2c1. The data set can be described thus: Km and kcat/Km of substrates with MMP-8. It counts as biochemical. The note with it: other: substrate cleavage by MMP-8.

The subject of data set [5] is COc1ccc2c(CC(=O)N[C@@H](CCCNC(=N)N)C(=O)N3CCC[C@H]3C(=O)N[C@@H](CC(C)C)C(=O)NCC(=O)N[C@@H](CCCCOCc3ccccc3)C(=O)N[C@@H](CNc3ccc([N+](=O)[O-])cc3[N+](=O)[O-])C(=O)N[C@@H](C)C(=O)N[C@@H](CCCNC(=N)N)C(=O)N[C@@H](CCC(=O)O)C(=O)N[C@@H](CCCNC(=N)N)C(N)=O)cc(=O)oc2c1. Briefly: Km and kcat/Km of substrates with MMP-8. It counts as biochemical. Particulars: other: substrate cleavage by MMP-8.

The subject of data set [6] is COc1ccc2c(CC(=O)N[C@H](CCCNC(=N)N)C(=O)N3CCC[C@H]3C(=O)N[C@@H](CC(C)C)C(=O)NCC(=O)N[C@@H](CCCCOCc3ccccc3)C(=O)N[C@@H](CNc3ccc([N+](=O)[O-])cc3[N+](=O)[O-])C(=O)N[C@@H](C)C(=O)N[C@H](CCCNC(=N)N)C(=O)N[C@H](CCC(=O)O)C(=O)N[C@H](CCCNC(=N)N)C(N)=O)cc(=O)oc2c1. Briefly: Km and kcat/Km of substrates with MMP-8. In kind it is biochemical. The note with it: other: substrate cleavage by MMP-8.

Data set [7] concerns COc1ccc2c(CC(=O)N[C@H](CCCNC(=N)N)C(=O)N3CCC[C@H]3C(=O)N[C@@H](CC(C)C)C(=O)NCC(=O)N[C@@H](CCCCOc3ccccc3)C(=O)N[C@@H](CNc3ccc([N+](=O)[O-])cc3[N+](=O)[O-])C(=O)N[C@@H](C)C(=O)N[C@H](CCCNC(=N)N)C(=O)N[C@H](CCC(=O)O)C(=O)N[C@H](CCCNC(=N)N)C(N)=O)cc(=O)oc2c1. Briefly: Km and kcat/Km of substrates with MMP-8. It counts as biochemical. Particulars: other: substrate cleavage by MMP-8.

The subject of data set [8] is COc1ccc2c(CC(=O)N[C@@H](CCCNC(=N)N)C(=O)N3CCC[C@@H]3C(=O)N[C@@H](CC(C)C)C(=O)NCC(=O)N[C@@H](CC(C)C)C(=O)N[C@H](CNc3ccc([N+](=O)[O-])cc3[N+](=O)[O-])C(=O)N[C@@H](C)C(=O)N[C@H](CCCNC(=N)N)C(=O)N[C@@H](CCC(=O)O)C(=O)N[C@H](CCCNC(=N)N)C(N)=O)cc(=O)oc2c1. The data set can be described thus: Km and kcat/Km of substrates with MMP-13. In kind it is biochemical. Particulars: other: substrate cleavage by MMP-13.

The subject of data set [9] is COc1ccc2c(CC(=O)N[C@@H](CCCNC(=N)N)C(=O)N3CCC[C@H]3C(=O)N[C@@H](CC(C)C)C(=O)NCC(=O)N[C@@H](CCCCOCc3ccccc3)C(=O)N[C@@H](CNc3ccc([N+](=O)[O-])cc3[N+](=O)[O-])C(=O)N[C@@H](C)C(=O)N[C@@H](CCCNC(=N)N)C(=O)N[C@@H](CCC(=O)O)C(=O)N[C@@H](CCCNC(=N)N)C(N)=O)cc(=O)oc2c1. Briefly: Km and kcat/Km of substrates with MMP-13. It counts as biochemical. Particulars: other: substrate cleavage by MMP-13.

Data set [10] relates to COc1ccc2c(CC(=O)N[C@H](CCCNC(=N)N)C(=O)N3CCC[C@H]3C(=O)N[C@@H](CC(C)C)C(=O)NCC(=O)N[C@@H](CCCCOCc3ccccc3)C(=O)N[C@@H](CNc3ccc([N+](=O)[O-])cc3[N+](=O)[O-])C(=O)N[C@@H](C)C(=O)N[C@H](CCCNC(=N)N)C(=O)N[C@H](CCC(=O)O)C(=O)N[C@H](CCCNC(=N)N)C(N)=O)cc(=O)oc2c1. The data set can be described thus: Km and kcat/Km of substrates with MMP-13. It counts as biochemical. The note with it: other: substrate cleavage by MMP-13.

Data set [11] deals with COc1ccc2c(CC(=O)N[C@H](CCCNC(=N)N)C(=O)N3CCC[C@H]3C(=O)N[C@@H](CC(C)C)C(=O)NCC(=O)N[C@@H](CCCCOc3ccccc3)C(=O)N[C@@H](CNc3ccc([N+](=O)[O-])cc3[N+](=O)[O-])C(=O)N[C@@H](C)C(=O)N[C@H](CCCNC(=N)N)C(=O)N[C@H](CCC(=O)O)C(=O)N[C@H](CCCNC(=N)N)C(N)=O)cc(=O)oc2c1. Briefly: Km and kcat/Km of substrates with MMP-13. In kind it is biochemical. The note with it: other: substrate cleavage by MMP-13.

Data set [12] relates to COc1ccc2c(CC(=O)N[C@@H](CCCNC(=N)N)C(=O)N3CCC[C@@H]3C(=O)N[C@@H](CC(C)C)C(=O)NCC(=O)N[C@@H](CC(C)C)C(=O)N[C@H](CNc3ccc([N+](=O)[O-])cc3[N+](=O)[O-])C(=O)N[C@@H](C)C(=O)N[C@H](CCCNC(=N)N)C(=O)N[C@@H](CCC(=O)O)C(=O)N[C@H](CCCNC(=N)N)C(N)=O)cc(=O)oc2c1. Briefly: purified protein, by the assay type. The note with it: other: substrate cleavage by MMP-14.
Data set [13] concerns COc1ccc2c(CC(=O)N[C@@H](CCCNC(=N)N)C(=O)N3CCC[C@H]3C(=O)N[C@@H](CC(C)C)C(=O)NCC(=O)N[C@@H](CCCCOCc3ccccc3)C(=O)N[C@@H](CNc3ccc([N+](=O)[O-])cc3[N+](=O)[O-])C(=O)N[C@@H](C)C(=O)N[C@@H](CCCNC(=N)N)C(=O)N[C@@H](CCC(=O)O)C(=O)N[C@@H](CCCNC(=N)N)C(N)=O)cc(=O)oc2c1. The data set can be described thus: purified protein, by the assay type. The note with it: other: substrate cleavage by MMP-14.

Data set [14] deals with COc1ccc2c(CC(=O)N[C@H](CCCNC(=N)N)C(=O)N3CCC[C@H]3C(=O)N[C@@H](CC(C)C)C(=O)NCC(=O)N[C@@H](CCCCOCc3ccccc3)C(=O)N[C@@H](CNc3ccc([N+](=O)[O-])cc3[N+](=O)[O-])C(=O)N[C@@H](C)C(=O)N[C@H](CCCNC(=N)N)C(=O)N[C@H](CCC(=O)O)C(=O)N[C@H](CCCNC(=N)N)C(N)=O)cc(=O)oc2c1. The data set can be described thus: purified protein, by the assay type. Particulars: other: substrate cleavage by MMP-14.

Data set [15] relates to COc1ccc2c(CC(=O)N[C@H](CCCNC(=N)N)C(=O)N3CCC[C@H]3C(=O)N[C@@H](CC(C)C)C(=O)NCC(=O)N[C@@H](CCCCOc3ccccc3)C(=O)N[C@@H](CNc3ccc([N+](=O)[O-])cc3[N+](=O)[O-])C(=O)N[C@@H](C)C(=O)N[C@H](CCCNC(=N)N)C(=O)N[C@H](CCC(=O)O)C(=O)N[C@H](CCCNC(=N)N)C(N)=O)cc(=O)oc2c1. Briefly: purified protein, by the assay type. Particulars: other: substrate cleavage by MMP-14.

In general, Km refers to the concentration of substrate that gives half-maximal velocity.

Sequence of MMP-8 (Homo sapiens) (chain, as listed by the source): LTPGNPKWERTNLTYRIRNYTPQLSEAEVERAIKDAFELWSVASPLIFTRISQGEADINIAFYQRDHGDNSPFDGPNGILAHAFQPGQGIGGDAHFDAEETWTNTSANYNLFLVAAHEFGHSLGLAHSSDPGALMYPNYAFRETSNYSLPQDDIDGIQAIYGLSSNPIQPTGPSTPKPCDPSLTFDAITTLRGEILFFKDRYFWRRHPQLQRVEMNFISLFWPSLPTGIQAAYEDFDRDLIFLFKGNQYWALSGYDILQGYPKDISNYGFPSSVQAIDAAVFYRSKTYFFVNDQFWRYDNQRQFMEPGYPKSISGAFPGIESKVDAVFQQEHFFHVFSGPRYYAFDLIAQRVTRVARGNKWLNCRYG
Sequence of MMP-3 (Homo sapiens) (chain, as listed by the source): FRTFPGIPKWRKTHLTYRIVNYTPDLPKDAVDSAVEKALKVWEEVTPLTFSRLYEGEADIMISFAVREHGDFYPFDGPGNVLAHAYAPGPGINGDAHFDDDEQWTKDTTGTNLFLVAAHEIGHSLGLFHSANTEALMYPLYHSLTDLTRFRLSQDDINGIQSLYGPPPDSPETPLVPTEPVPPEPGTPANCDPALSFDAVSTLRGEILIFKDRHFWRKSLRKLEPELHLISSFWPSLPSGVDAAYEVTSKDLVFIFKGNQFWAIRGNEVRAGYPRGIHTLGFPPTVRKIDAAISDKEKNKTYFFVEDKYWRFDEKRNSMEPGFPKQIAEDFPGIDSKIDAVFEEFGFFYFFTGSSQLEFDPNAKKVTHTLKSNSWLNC

For the substance MMP-3 (Homo sapiens), the Km was determined as 14 µM in data set [1], 85.9 µM in data set [2] and 28.9 µM in [3]. Moreover, the kcat/Km was 0.63 M^−1s^−1×10^4 in data set [1], 0.48 M^−1s^−1×10^4 in data set [2] and 0.16 M^−1s^−1×10^4 in [3].
Consider MMP-8 (Homo sapiens), for which the Km turned out to be 16.7 µM in data set [4], 9.1 µM in data set [5], 3.3 µM in [6] and 4.4 µM in data set [7]. Also, the kcat/Km in data set [4] was found to be 13.9 M^−1s^−1×10^4; in [5] it was 17.9 M^−1s^−1×10^4; in data set [6], 14.6 M^−1s^−1×10^4; in [7], 52.2 M^−1s^−1×10^4.
Consider MMP-13 (Homo sapiens), for which the Km in [8] is 9 µM; in [9], 0.9 µM; in [10] it was 1.5 µM; in [11], 1.2 µM. In addition, the kcat/Km is listed as 29.6 M^−1s^−1×10^4 in data set [8], 424 M^−1s^−1×10^4 in [9], 158 M^−1s^−1×10^4 in data set [10] and 293 M^−1s^−1×10^4 in [11].
MMP-14 (Homo sapiens): the Km in data set [12] was 27.2 µM; in data set [13], 12 µM; in data set [14], 23.7 µM; in data set [15] it was 7.4 µM. In addition, the kcat/Km came out at 4.1 M^−1s^−1×10^4 in data set [12], 8.3 M^−1s^−1×10^4 in [13], 5.09 M^−1s^−1×10^4 in data set [14] and 15.5 M^−1s^−1×10^4 in [15].
